Measurements published in paper PMC8200828, “Phylogenetic and Structural Analysis of NIN-Like Proteins With a Type I/II PB1 Domain That Regulates Oligomerization for Nitrate Response” (Frontiers in Plant Science, 2021).

Legend:
[1] = molecular target: the molecule itself; assay: dynamic light scattering; protein at 2 mg/mL, after SEC, 25 °C; self-association
[2] = molecular target: the molecule itself; assay: SEC; Superdex S-75 in buffer C (20 mM Tris pH 8.8, 0.5 M NaCl, 10% glycerol, 5 mM GSH, 1 mM TCEP), calibrated with gel filtration standard markers; self-association

B1: Arabidopsis thaliana NLP7 (AtNLP7) PB1 domain, wild type (domain or fragment, UniProt Q84TH9 863-945, looked up)
chain: TVTIKASYKDDIIRFRISSGSGIMELKDEVAKRLKVDAGTFDIKYLDDDNEWVLIACDADLQECLEIPRSSRTKIVRLLVHDV
notes: NIN-like protein 7 (AtNLP7), Arabidopsis thaliana, PB1 domain at the C-terminus of AtNLP7; PCR-amplified from plasmid pDL2Nx-NLP7 PB1 with the printed primers PB1-EcoRI and PB1-HindIII, subcloned into pET28a; A thrombin cleavage site follows the N-terminal His6 tag; no cleavage step is described and the purified protein is called 6xHis-NLP7 PB1 (15.6 kDa); also called NLP7 PB1wt; 6xHis-NLP7 PB1 …
stoichiometry N [1]: 4
stoichiometry N [2]: 2
